Results from US6649396.

Biological target: native fiber receptors
Assay: cell-based or functional assay

| Substance | decrease in expression of luciferase after AdCMVLuc infection of mock-transfected HeLa cells and HeLa cells expressing the irrelevant sFv [%] |
| --- | --- |
| recombinant Ad2 knob (from UniProt P03275 388-582) | > 95 |
| recombinant Ad5 knob (from UniProt P11818 386-581) | > 95 |
